The values that follow come from patent publication US20110217237A1 (AbbVie / Abbott, published 2011).

Like-named read-outs stand apart in the source and are kept apart here.

Experiment [1] concerns the target T1, mouse DLL4 on cells (mouse, UniProt Q9JI71 27-686).
T1 construct: whole, on cells; also called mouse DLL4-293G; mu DLL4 cells
Briefly: competition FACS: huNotch-1-biotin to DLL4 cells. As to the method:
(§1) Notch blocking assay: Briefly, stable cell lines overexpressing cell-surface DLL4 were harvested from tissue culture flasks and re-suspended in phosphate buffered saline (PBS) containing 1% bovine serum albumin and 1 mM CaCl₂ (FACS buffer). HEK293G-DLL4 cells were dispensed into 96-well plate (v-bottom) at 1.5×10⁵ cells/well in FACS buffer. After spinning down cells and discarding the supernatant, 50 μL of purified IgG with appropriate dilution were added to each well, and incubated on ice at 4° C. for 60 minutes, followed by addition of 50 μL/well of Notch1-biotin at 0.2 μg/mL for human DLL4-293G or 2.0 μg/mL for mouse DLL4-293G (1.0 or 0.1 μg/mL final) for an additional 1 hour incubation ice at 4° C. After washing the cells two times with FACS buffer, 50 μL of R-phycoerythrin-conjugated streptavidin (1:150 dilution in FACS buffer) (Jackson ImmunoResearch, West Grove, Pa., Cat.#016-110-084) were added. Following an incubation on ice (4° C., 60 minutes), cells were washed three times and resuspended in FACS buffer. Fluorescence was measured using a Becton Dickinson FACSCalibur-HTS (Becton Dickinson, San Jose, Calif.). Data were analyzed using Graphpad Prism software, and IC₅₀ values were reported as the concentration of antibody to achieve 50% reduction of Notch1 bound to DLL4 expressing cells. […]

Experiment [2] addresses T2, human DLL4, full length, on cells (human, UniProt Q9NR61 27-685).
T2 construct: also called huDLL4 cells; human DLL4-293G
Briefly: competition FACS: huNotch-1-biotin to DLL4 cells. The method, then:
as §1

Experiment [3] addresses T1, mouse DLL4 on cells. Put plainly: FACS, DLL4 cells. As to the method: (§2) Stable cell lines overexpressing cell-surface DLL4 were harvested from tissue culture flasks, washed four times and resuspended in phosphate buffered saline (PBS) containing 1% bovine serum albumin and 1 mM CaCl₂ (FACS buffer). 1.5×10⁵ cells were incubated with antibodies at various concentrations in FACS buffer for 60 minutes on ice. […] Following an incubation on ice (4° C., 60 minutes), cells were washed three times and resuspended in FACS buffer. Fluorescence was measured using a Becton Dickinson FACSCalibur-HTS (Becton Dickinson, San Jose, Calif., US). Data were analyzed using Graphpad Prism software and EC₅₀ values were reported as the concentration of antibody to achieve 50% of maximal DLL4 antibodies binding to DLL4 expressing cells. […]
Background: A flow cytometer gives signals particle by particle.

Experiment [4] concerns the target T2, human DLL4, full length, on cells. Briefly: FACS, DLL4 cells. As to the method:
as §2

For experiment [5], the target named is T3, mouse DLL4 extracellular domain (mouse, UniProt Q9JI71 27-532).
T3 construct: extracellular domain; also called muDLL4 ECD; murine DLL4
Briefly: SPR (Biacore). Summed up: (§3)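 Purified anti-DLL4 antibodies (1 μg/ml) captured on immobilized goat anti-human Fc, with DLL4 ECD injected as analyte; HBS-EPB running buffer (pH 7.4), 25° C, referenced against capture-only surface. On/off rates from global 1:1 Langmuir fit; KD = Koff/Kon.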
For orientation: Surface plasmon resonance follows binding to a sensor surface in real time, without labels.

The target of experiment [6] is T4, cynomolgus monkey DLL4 extracellular domain (cynomolgus monkey).
T4 construct: extracellular domain; also called cynoDLL4 ECD; Cyno DLL4
Briefly: SPR (Biacore). As to the method:
(§4) The BIACORE® surface plasmon resonance assay (Biacore, Inc., Piscataway, N.J., US) determines the affinity of antibodies with kinetic measurements of on-rate and off-rate constants. Binding of DLL4 antibodies to a purified recombinant DLL4 extracellular domain (ECD) was determined by surface plasmon resonance-based measurements with a Biacore® instrument (either a Biacore 2000, Biacore 3000, or Biacore T100; GE Healthcare, Piscataway, N.J., US) using running buffer HBS-EPB (10 mM HEPES [pH 7.4], 150 mM NaCl, 3 mM EDTA, 0.1 mg/ml BSA and 0.005% surfactant P20) at 25° C. For example, approximately 9000 RU of goat anti-human Fc specific polyclonal antibody (Thermo Fisher Scientific Inc., Rockford, Ill., US) diluted in 10 mM sodium acetate (pH 4.5) is directly immobilized across a CMS research grade biosensor chip using a standard amine coupling kit according to manufacturer's instructions and procedures at 25 μg/ml. Unreacted moieties on the biosensor surface were blocked with ethanolamine. For kinetic analysis, rate equations derived from the 1:1 Langmuir binding model were fitted simultaneously to multiple antigen injections (using global fit analysis) with the use of Scrubber 2 (BioLogic Software), Biacore Biaevaluation 4.0.1 software or Biacore T100 Evaluation software. Purified antibodies were diluted in running buffer for capture across goat anti-human Fc reaction surfaces. Antibodies to be captured as a ligand (1 μg/ml) were injected over reaction matrices at a flow rate of 10 μl/min. During the assay, all measurements were referenced against the capture surface alone (i.e., with no captured anti-DLL4 antibody). […] The equilibrium dissociation constant KD (M) of the reaction between antibodies and the target antigen was then calculated from the kinetic rate constants by the following formula: KD=Koff/Kₒₙ. Binding was recorded as a function of time and kinetic rate constants were calculated.

Experiment [7] has as its target T5, human DLL4 extracellular domain (human, UniProt Q9NR61 27-529).
T5 construct: purified recombinant ECD; biotin-labelled or 6xHis-tagged depending on the assay; also called huDLL4 ECD; hu DLL4 ECD
Briefly: SPR (Biacore). As to the method:
as §4

In experiment [8] the target is T3, mouse DLL4 extracellular domain. Briefly: competition ELISA: biotin-DLL4 ECD to coated huNotch-1. The method, then:
(§5) Plates were then washed 3 times with wash buffer (PBS, 0.05% Tween-20) and blocked with 200 μl/well blocking buffer (D-PBS, 1% BSA, 1 mM CaCl₂, 0.05% Tween-20) for 1 hour at 25° C. While blocking, biotin labeled DLL4 extracellular domain (14 nM) was mixed with antibody (30 pM-66 nM, 3-fold serial dilution in blocking buffer) for 1 hour at 25° C. with shaking. Assay plates were washed after blocking, and incubated with DLL4/antibody mixtures (100 μl/well, 1 hour at 25° C. with shaking). Plates were washed again and 100 μl/well streptavidin conjugated with HRP (Fitzgerald #65R-S104PHRPx, diluted 1:5,000 in blocking buffer) was added for 1 hour at 25° C. with shaking. After a final wash, plates were developed using 100 μl/well substrate (TMB Sigma #T8665), and the reaction was stopped using 100 μl/well 1N HCl, and the absorbance was read at 450 nm. Data were analyzed using Graphpad Prism software and IC₅₀ values were reported as the concentration of antibody to achieve 50% reduction of DLL4 bound to Notch1.
(§6) Further characterization determined 37D10 and 40B10 were identical rat mAbs.
(In an ELISA, binding on a coated surface is turned into a signal by an enzyme label.)

The target of experiment [9] is T5, human DLL4 extracellular domain. Described as above. The method, then:
as §5, §6

In experiment [10] the target is T3, mouse DLL4 extracellular domain. Put plainly: binding ELISA, DLL4 ECD.
In experiment [11] the target is T5, human DLL4 extracellular domain. Put plainly: binding ELISA, DLL4 ECD.
Experiment [12] has as its target T6, rat DLL4 extracellular domain (rat, UniProt D3ZHH1 28-530).
T6 construct: extracellular domain; also called ratDLL4 ECD
Briefly: SPR (Biacore). Summed up: as §3

The target in experiment [13] is T5, human DLL4 extracellular domain. Put plainly: SPR (Biacore). The source holds these as a separate data set.
The target in experiment [14] is T2, human DLL4, full length, on cells. Put plainly: cell-based or functional assay.
In experiment [15] the target is T3, mouse DLL4 extracellular domain. Put plainly: competition ELISA vs Notch-1.
In experiment [16] the target is T5, human DLL4 extracellular domain. Briefly: competition ELISA vs Notch-1.

T2 sequence (Q9NR61 27-685 limits assumed): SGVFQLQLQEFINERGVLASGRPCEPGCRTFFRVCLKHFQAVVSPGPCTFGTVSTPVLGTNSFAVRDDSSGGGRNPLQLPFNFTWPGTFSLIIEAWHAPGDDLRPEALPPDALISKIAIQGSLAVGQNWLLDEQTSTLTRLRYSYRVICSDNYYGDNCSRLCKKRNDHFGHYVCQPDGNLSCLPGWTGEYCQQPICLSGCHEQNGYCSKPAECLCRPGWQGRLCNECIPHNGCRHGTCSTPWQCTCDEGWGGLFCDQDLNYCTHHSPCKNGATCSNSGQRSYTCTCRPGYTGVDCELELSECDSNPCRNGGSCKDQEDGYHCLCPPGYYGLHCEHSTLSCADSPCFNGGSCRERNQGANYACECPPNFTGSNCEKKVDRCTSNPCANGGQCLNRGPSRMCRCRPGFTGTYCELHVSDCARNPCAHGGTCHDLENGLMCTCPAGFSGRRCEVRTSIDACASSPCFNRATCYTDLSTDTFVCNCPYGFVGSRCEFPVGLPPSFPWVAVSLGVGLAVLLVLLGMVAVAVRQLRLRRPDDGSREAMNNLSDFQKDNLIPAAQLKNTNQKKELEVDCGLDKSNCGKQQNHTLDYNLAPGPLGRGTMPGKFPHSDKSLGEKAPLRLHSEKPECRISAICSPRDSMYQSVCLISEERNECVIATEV
T5 sequence (Q9NR61 27-529 limits assumed): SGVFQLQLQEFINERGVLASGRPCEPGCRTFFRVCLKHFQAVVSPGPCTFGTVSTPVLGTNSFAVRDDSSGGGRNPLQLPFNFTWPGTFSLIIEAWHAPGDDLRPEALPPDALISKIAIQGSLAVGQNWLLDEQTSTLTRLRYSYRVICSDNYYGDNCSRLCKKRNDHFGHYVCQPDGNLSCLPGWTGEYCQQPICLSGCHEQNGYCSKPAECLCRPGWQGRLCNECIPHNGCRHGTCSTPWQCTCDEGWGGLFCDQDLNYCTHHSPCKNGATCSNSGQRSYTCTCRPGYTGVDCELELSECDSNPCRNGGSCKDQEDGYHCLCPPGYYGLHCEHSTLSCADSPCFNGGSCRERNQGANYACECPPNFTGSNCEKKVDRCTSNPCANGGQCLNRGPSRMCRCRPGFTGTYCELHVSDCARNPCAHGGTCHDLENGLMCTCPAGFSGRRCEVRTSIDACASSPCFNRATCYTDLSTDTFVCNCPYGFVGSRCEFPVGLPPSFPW
T3 sequence (Q9JI71 27-532): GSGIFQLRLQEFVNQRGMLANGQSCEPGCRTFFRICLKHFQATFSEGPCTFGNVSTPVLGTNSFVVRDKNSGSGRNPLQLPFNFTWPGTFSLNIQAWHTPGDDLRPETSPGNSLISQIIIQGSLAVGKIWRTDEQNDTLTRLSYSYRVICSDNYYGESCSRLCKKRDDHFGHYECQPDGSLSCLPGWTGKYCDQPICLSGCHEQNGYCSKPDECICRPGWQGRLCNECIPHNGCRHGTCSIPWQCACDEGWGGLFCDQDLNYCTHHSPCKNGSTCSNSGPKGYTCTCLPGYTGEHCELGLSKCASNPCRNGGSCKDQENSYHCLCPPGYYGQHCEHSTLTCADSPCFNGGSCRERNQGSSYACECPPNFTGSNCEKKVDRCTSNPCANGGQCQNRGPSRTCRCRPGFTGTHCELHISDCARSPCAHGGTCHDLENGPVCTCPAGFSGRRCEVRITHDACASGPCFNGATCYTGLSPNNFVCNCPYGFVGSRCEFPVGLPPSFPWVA
T1 sequence (Q9JI71 27-686): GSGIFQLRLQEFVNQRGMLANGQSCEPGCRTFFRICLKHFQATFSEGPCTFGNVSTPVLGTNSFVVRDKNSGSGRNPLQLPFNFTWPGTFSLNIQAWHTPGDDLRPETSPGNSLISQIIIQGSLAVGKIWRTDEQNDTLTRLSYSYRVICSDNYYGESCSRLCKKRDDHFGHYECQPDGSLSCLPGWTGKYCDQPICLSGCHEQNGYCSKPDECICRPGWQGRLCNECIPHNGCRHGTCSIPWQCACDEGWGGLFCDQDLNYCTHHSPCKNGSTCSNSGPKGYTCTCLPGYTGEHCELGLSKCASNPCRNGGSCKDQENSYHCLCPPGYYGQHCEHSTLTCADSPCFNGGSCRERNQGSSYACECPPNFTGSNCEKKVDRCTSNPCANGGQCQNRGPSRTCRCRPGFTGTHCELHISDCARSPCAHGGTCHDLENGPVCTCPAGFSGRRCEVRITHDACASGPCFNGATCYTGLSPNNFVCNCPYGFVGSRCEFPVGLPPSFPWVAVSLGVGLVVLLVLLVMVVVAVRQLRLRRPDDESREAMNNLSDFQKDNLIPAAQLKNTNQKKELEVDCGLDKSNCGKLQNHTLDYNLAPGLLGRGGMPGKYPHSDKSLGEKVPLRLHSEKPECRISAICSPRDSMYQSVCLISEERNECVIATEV
T6 sequence (D3ZHH1 28-530): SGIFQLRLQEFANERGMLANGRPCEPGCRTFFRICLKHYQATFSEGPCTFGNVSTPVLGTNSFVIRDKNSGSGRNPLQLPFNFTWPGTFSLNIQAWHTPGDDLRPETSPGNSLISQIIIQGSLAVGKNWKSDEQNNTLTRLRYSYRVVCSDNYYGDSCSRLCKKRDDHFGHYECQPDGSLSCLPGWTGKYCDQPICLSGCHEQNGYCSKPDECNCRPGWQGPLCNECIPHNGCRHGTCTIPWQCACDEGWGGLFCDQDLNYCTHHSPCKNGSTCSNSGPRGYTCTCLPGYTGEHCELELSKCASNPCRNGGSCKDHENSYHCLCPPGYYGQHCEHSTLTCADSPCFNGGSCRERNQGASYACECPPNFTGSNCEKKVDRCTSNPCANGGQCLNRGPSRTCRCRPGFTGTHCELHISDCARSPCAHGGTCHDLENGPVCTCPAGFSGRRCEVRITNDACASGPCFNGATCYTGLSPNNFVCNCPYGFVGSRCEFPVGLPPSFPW

B1: 37D10 rat anti-DLL4 monoclonal antibody (antibody, rat IgG2a, V domains shown)
VH: AVQLVESGGGLVQPKESLKISCAASGFTFSNAAMYWVRLAPGKGLEWVARIRTKPNNYATYYAESVKGRFTISRDDSKSMVYVQMDNLKTEDTAMYYCTAAPWRDSYAHVYWGQGVMVTVSS
VL: DIQMTQSPPVLSASVGDRVTLSCKASQNIHKNLDWYQQKHGDAPKLLIYYTDHLQTGVPSRFSGSGSATDYTLTISSLQPEDVATYYCYQYNGGPFTFGSGTKLEIKR
notes: rat IgG2a/k hybridoma mAb; also called 40B10; 37D10 = 40B10
On to B1, for which the IC50 came out at 3.8 nM with mouse DLL4 on cells [1], 5.5 nM in experiment [2], 3.36 nM in experiment [8] and 5.39 nM in experiment [9]. Moreover, the EC50 with mouse DLL4 on cells [3] stood at 0.7 nM; in experiment [4], 2.3 nM; in experiment [10] it was 0.14 nM; in [11], 0.12 nM. Further, the values for the Kd in [5], in experiment [6] and in [7] were 135 nM, less than 617 nM and 484 nM, respectively. Further, the koff came to 0.0135 s⁻¹ in [5] and 0.07 s⁻¹ in experiment [7]. Besides, the values for the kon in experiment [5], in [6] and in experiment [7] were 100000 M⁻¹ s⁻¹, 40000 M⁻¹ s⁻¹ and 140000 M⁻¹ s⁻¹, respectively.

B2: 1A11 rat anti-DLL4 monoclonal antibody (antibody, rat IgG1, V domains shown)
VH: EVQLVESGGGLVQPGRSMKLSCAASGFTFRNFPMAWVRQAPTRGLEWVATISSSDGTTYYRDSVKGRFTISRDNAKSTLYLQVNSLRSEDTATYYCSRGYYNSPFAYWGQGTLVTVSS
VL: DIQMTQSPASLSASLGETVTIECRASEDIYSNLAWYQQKPGNSPQLLIFDTNNLADGVPSRFSGSGSGTQSSLKINSLQSEDVASYFCQQYNNYPPTFGGGTKLELKR
notes: rat IgG1/K hybridoma mAb; also called MC13-1A11.2E1; 1A11 (rat mAb)
On to B2, for which the IC50 in the experiment with mouse DLL4 on cells [1] is 0.8 nM; in experiment [2], 8.4 nM; in experiment [8], 0.79 nM; in [9], 0.78 nM; in experiment [15] it was 1.1 nM; in [16] it was 0.5 nM. Further, the half-maximal effective concentration (EC50) with mouse DLL4 on cells [3] stood at 0.8 nM; in [4] it was 34.8 nM; in [10], 0.11 nM; in experiment [11], 0.06 nM. Moreover, the binding result in [12] was “no binding”. The Kd in [5] turned out to be 23 nM; in [13], 6 nM; in experiment [6], 8.1 nM; in experiment [7], 5.8 nM. The off-rate constant (koff) in experiment [5] came to 0.0029 s⁻¹; in experiment [6], 0.00093 s⁻¹; in [7], 0.0011 s⁻¹. For the same molecule, the kon in [5] came out at 130000 M⁻¹ s⁻¹; in [6] it was 110000 M⁻¹ s⁻¹; in [7], 190000 M⁻¹ s⁻¹. Moreover, the “Notch activation Inhibition (IC50, nM), huDLL4 cell/Notch reporter cells” value in [14] is 2.9 nM.

B3: 14A11 rat anti-DLL4 monoclonal antibody (antibody, rat IgG2a, V domains shown)
VH: EVQLQQSGPELAKPGSSVKISCKASGYTFTNSYISWIKQTTGQGLEYVGYINTGSGGADYNEKFKGKATLTVDKSSRTAFMQLSSLTPGDSAVYYCAKSILLGSTCYFDYWGQGVLVTVSS
VL: NTVLTQSPALAVSLGQRVTISCKASRSVSSPMYSYIYWYQQKPGQQPKLLIYRASTLASGVPARFSGSGSGTDFTLNIDPVEADDIATYFCQQSWSDPFTFGSGTKLEIKR
notes: rat IgG2a/K hybridoma mAb; also called MC13-14A11.3A4
B3: the IC50 is 1.6 nM with mouse DLL4 on cells [1], 205 nM in experiment [2] and 19.8 nM in [8]. Also, the EC50 in the experiment with mouse DLL4 on cells [3] is 2.1 nM; in experiment [4], more than 50 nM. Also, the binding result in experiment [12] was “no binding”. In addition, the Kd in experiment [5] was determined as 1.3 nM; in experiment [6], 11.6 nM; in [7], 10.3 nM. Besides, the koff in experiment [5] was 9e-05 s⁻¹; in experiment [6], 0.0012 s⁻¹; in experiment [7] it was 0.0012 s⁻¹. The association rate constant (kon) in experiment [5] turned out to be 70000 M⁻¹ s⁻¹; in experiment [6] it was 110000 M⁻¹ s⁻¹; in [7], 120000 M⁻¹ s⁻¹. For the same molecule, the “Notch activation Inhibition (IC50, nM), huDLL4 cell/Notch reporter cells” value in experiment [14] was 2.7 nM.

The term IC50 denotes the point on the concentration scale where inhibition reaches its midpoint. The EC50 is the concentration at which the effect is half-maximal. Usually Kd stands for the equilibrium constant for the complex coming apart. For orientation: koff means the rate constant with which the complex falls apart. A word on the kon: it is the second-order rate constant of association.
